Measured values: patent US20040014134

Molecular target: Fusion protein B (variant 2; rsGFP - cleavage site segment with TEV protease cleavage site - DsRed)

B1: TEV protease (protease from the tobacco etch virus) (protein)
chain: GESLFKGPRDYNPISSTICHLTNESDGHTTSLYGIGFGPFIITNKHLFRRNNGTLLVQSLHGVFKVKNTTTLQQHLIDGRDMIIIRMPKDFPPFPQKLKFREPQREERICLVTTNFQTKSMSSMVSDTSCTFPSSDGIFWKHWIQTKDGQCGSPLVSTRDGFIVGIHSASNFTNTNNYFTSVPKNFMELLTNQEAQQWVSGWRLNADSVLWGGHKVFMSKPEEPFQPVKEATQLMNELVYSQ
With B1 the “two-photon cross-correlation amplitude (dual-colour FCS protease cleavage assay)” value was “The cleavage of the bond and the consequent reduction of the proportion of double fluorescing molecules in the measurement solution cause the decrease of the cross-correlation amplitude”.
